Paper PMC2918291 (Nature structural & molecular biology, 2010)

Target: the molecule itself
Assay: crystal structure

B1: MthK K^+ channel ion conduction pore, S68R V77C mutant (domain or fragment, Methanobacterium thermoautotrophicum)
chain: VPATRILLLVLAVIIYGTAGFHFIEGESWTVSLYWTFVTIATVGYGDYSPRTPLGMYFTCTLIVLGIGTFAVAVERLLEFLI
Does B1 bind?
Result: binds
